Consider one molecule from patent publication US7947279B2, “Peptide having hydrolase activity” (The Trustees of Columbia University in the City of New York, priority 2005, dated 2011).

“Also recorded” adds a separate entry of the source.

Assay [1] concerns ubiquitin-AMC. Nature of the assay: Hydrolysis of ubiquitin-AMC by TAT fusion proteins. Conditions: 20 nM TAT fusion proteins. In kind it is biochemical. On the procedure: Measurement of Hydrolase Activity: The hydrolase assay was performed as previously described (Nishikawa et al., 2003) with slight modifications. Briefly, hippocampal tissue was treated with tissue protein extraction reagent (T-PER; Pierce) containing freshly added EDTA-free protease inhibitors. Homogenate was centrifuged at 10,000 rpm for 5 min. Protein concentration was measured in the supernatant using the BCA protein assay reagent. In some experiments hydrolysis was initiated by adding 10 μl of 20 nM Uch-L1 or Uch-L3 (Boston Biochem). The hydrolase assay was performed using fluorogenic ubiquitin-7-amino-4-methylcoumarin (ubiquitin-AMC) (Boston Biochem) as a substrate. The substrate was diluted in assay buffer (50 mM Tris-HCL, 0.5 mM EDTA, 5 mM dithiothreitol and 0.1 mg/ml ovalbumin, pH 7.6). […] The reaction was monitored using a fluorescence spectrophotometer (CytoFluor Series 4000, ABI Inc) at 25° C. The free AMC fluorophore was excited at 380 nm and measured at 460 nm. Hydrolase activity was expressed as relative fluorescence intensity/min (Dang et al., 1998). In some experiments, hydrolysis was also measured on the soluble and insoluble fractions (FIG. 28D). In a group of experiments hydrolysis was measured by mixing ubiquitin-AMC with 20 nM TAT fusion proteins (FIG. 27C). […]

Assay [2] has as its system SY5Y neuroblastoma cells transfected with a degron CL1-GFP expression vector. Nature of the assay: Proteasome reporter assay (GFP^u). The format is cell-based, human. As to conditions: substance alone. The procedure: Proteasome reporter assays. In this cell line, human neuroblastoma SH-SY5Y cells were permanently transfected with reporter construct consisting of green fluorescent protein (GFP) conjugated at its C-terminus to a short degron sequence (CL-1) (Gilon et al., 1998). […] The SY5Y-GFP^u cells were grown in 1×DMEM (Invitrogen) supplemented with 15% fetal bovine serum (JRH), 1× penicillin/streptomycin (Gibco). After indicated treatments, GFP^u concentrations were assayed by densitometric analysis of immunoblots of total protein extracts (10 ug/lane) using monoclonal GFP antibodies (Santa Cruz Biotechnology) and visualized with HRP-conjugated secondary antibodies and ECL (Pierce). Loading equalization was normalized by probing blots with anti-ERK antibodies (Santa Cruz Biotechnology).

Assay [3] deals with phospho-CREB at Ser-133. Briefly: Phospho-CREB (Ser-133) Western blot in hippocampal cultures. In kind it is cell-based, rat. On the procedure:
Western Blotting: Protein levels were assessed using standard procedures. Protein extraction was performed using buffer with and without detergent. For the extraction of protein using detergent, hippocampal tissues and cultured hippocampal neurons (5 DIV) were homogenized in RIPA buffer (50 mM Tris-HCl pH 7.4, 1% Triton X-100, 1% sodium deoxycholate, 0.1% SDS, 150 mM sodium chloride, 10 mM sodium fluoride, 30 mM sodium pyrophosphate, 50 mM sodium orthovanadate) containing 1× complete protease inhibitor (Roche) and 1 mM phenylmethylsulfonyl fluoride (PMSF). For extraction of proteins without detergent, hippocampal extracts were homogenized with disposable dounce homogenizers in buffer A, containing 10 mM HEPES pH 7.3, 300 mM sucrose, protease 1× complete protease inhibitor (Roche) and PMSF. After centrifugation at 10,000×g supernatant proteins were resolved on a 8% or 4-20% gradient Tris-Glycine gel, transferred onto PVDF or nitrocellulose membrane and blocked in 5% skim milk in PBS-Tween 0.1% (PBS-T). Membranes were probed with primary antibodies, and after washing with PBS-T incubated with an appropriate HRP-conjugated secondary antibody. The following antibodies were used: mouse monoclonal anti-ubiquitin (Chemicon), rabbit polyclonal anti-pCREB (Upstate Biotech.), rabbit polyclonal anti-PKA-RIIα (Santa Cruz Biotech. Inc), mouse monoclonal anti-Uch-L1 (Novocastra), monoclonal mouse anti-HA (Santa Cruz Biotech. Inc), and anti-PKA IIα. Detection was performed using HRP-conjugated secondary antibodies (Pierce, Rockford, Ill.). To control loading and transfer, protein immunoreactivities were normalized against total extracellular signal-regulated protein kinases (ERK1/2) levels with a rabbit analyzed using a rabbit polyclonal anti-ERK1/2 antibody (Cell Signaling Technology, Inc). NIH IMAGE was used to analyze the scanned blots and quantify the intensity of the protein signals.
Preparation of Cell Cultures. Hippocampal cell cultures were prepared as previously described (Vitolo et al., 2002). In cell culture experiments fetuses at embryonic day 18 from timed pregnant Sprague-Dawley rats (Taconic Farms) were used. Fetuses were sacrificed and the hippocampi removed. Neurons were then dissociated, plated on 6 well-plates coated with poly-L-lysine and maintained in a defined serum-free medium containing minimum essential medium supplemented with N-2, glucose, albumin, pyruvic acid, antibiotics and antimycotics. […] 5 DIV cells were used for the experiments.
(In western blotting, separated proteins are transferred to a membrane and probed.)

Assay [4] relates to mice (WT and APP/PS1). Nature of the assay: Contextual and cued fear conditioning. The format is in vivo, mouse. As to conditions: 0.02-0.04 g/kg i.p.; 1, 7, 14 and 21 days after training. The procedure:
Behavioral Studies: Fear conditioning was performed in a conditioning chamber as previously described (Bourtchuladze et al., 1994; Gong et al., 2004). For contextual and cued fear conditioning mice were placed in the conditioning chamber for 2 min before the onset of a discrete tone (CS) (a 30 sec sound at 2800 Hz and 85 dB). In the last 2 sec of the CS, mice were given a foot shock (US) of 0.50 mA for 2 sec through the bars of the floor. After the CS/US pairing, the mice were left in the conditioning chamber for another 30 sec and then placed back in their home cages. Freezing behavior, defined as the absence of all movement except for that necessitated by breathing, was scored using Freezeview software. To evaluate contextual fear learning, freezing was measured for 5 min in the chamber in which the mice were trained 24 hrs after training. To evaluate cued fear conditioning, following contextual testing, the mice were placed in a novel context (triangular cage with smooth flat floor and with vanilla odorant) for 2 min (pre-CS test), after which they were exposed to the CS for 3 min (CS test), and freezing was measured. To evaluate the contextual fear over time, mice were placed for 5 min in the chamber in which the mice were trained 7- 14- 21-days after training. Sensory perception of the shock was determined through threshold assessment. Each animal was placed individually into the conditioning chamber. […] Animal behavior was evaluated for the first visible response to the shock (flinch), the first extreme motor response (run/jump), and the first vocalized distress (scream). Threshold to flinching, jumping, and screaming was quantified for each animal by averaging of the shock intensity at which each animal manifested a behavioral response of that type to the foot shock. Visual, motor, and motivation skills were also tested with visible platform training by measuring the time and the speed to reach a visible platform placed within a pool filled with water (Gong et al., 2004). Both time to reach the platform and swimming speed were recorded and analyzed with a video tracking system (HVS-2020, HVS Image, UK). No difference was observed among different groups of mice in the experiments in which fear conditioning was tested both in the presence of LDN and TAT fusion proteins. To decide the time of administration of LDN, experiments were performed in which the inhibitor was injected intra-peritoneally at different intervals (4 hrs before, 1 hr before, 1 hr after and 4 hrs after) from the electric shock. During the training phase, no difference was found in the freezing of LDN- or vehicle-injected mice.

In assay [5] the test system is CA1-LTP in hippocampal slices. Briefly: CA1-LTP in hippocampal slices (theta-burst). The format is cell-based, mouse. As to conditions: for Aβ-induced impairment of CA1-LTP (words): fusion protein 20 nM 1 hr, then plus Aβ 200 nM 20 min; for LTP in slices not treated with Aβ (words): fusion protein 20 nM, 1 hr, WT slices, 3 theta-burst trains.

B1: TAT-HA-Uch-L1(C90S): mutant TAT-HA-Uch-L1 construct, C90S (hydrolase site), made by site-directed mutagenesis (protein, UniProt P09936 1-220, looked up, variant C90S)
Ubiquitin carboxyl-terminal …: MQLKPMEINPEMLNKVLSRLGVAGQWRFVDVLGLEEESLGSVPAPACALLLLFPLTAQHENFRKKQIEELKGQEVSPKVYFMKQTIGNSSGTIGLIHAVANNQDKLGFEDGSVLKQFLSETEKMSPEDRAKCFEKNEAIQAAHDAVAQEGQCRVDDKVNFHFILFNNVDGHLYELDGRMPFPVNHGASSEDTLLKDAAKVCREFTEREQGEVRFSAVALC
modifications: fused to HIV TAT transduction peptide and HA tag
notes: mutant TAT-HA-Uch-L1 construct, C90S (hydrolase site), made by site-directed mutagenesis
For the molecule B1, the “Uch (hydrolase) activity of TAT constructs (words)” value is “little or no activity” in assay [1] and “inactive” in assay [1] (listed as TAT-HA-Uch-L1 (C90S)). Further, in assay [2], the “GFP^u levels” value was “increase in GFP^u”. The “glutamate-induced increase in CREB phosphorylation” value in assay [3] (cultures not treated with Aβ) is “blocked the glutamate-induced increase in CREB phosphorylation”. Besides, the “effect of Aβ on glutamate-induced CREB phosphorylation (words)” value in assay [3] (fusion protein 100 nM, 3 μM Aβ 24 hrs, 50 μM glutamate 15 min) is given as “did not allow the enhancement of phospho-CREB”. For the same molecule, the “contextual learning in WT mice” value in assay [4] was “impaired both contextual learning and its decay; also recorded: worsened contextual conditioning performance”. In addition, the “Aβ-induced impairment of CA1-LTP (words)” value in assay [5] is listed as “failed to protect against LTP suppression; also recorded: failed to reverse”; in assay [5] (listed as TAT-HA-Uch-L1(C90S) peptide), “did not protect against LTP suppression”. Moreover, the “LTP in slices not treated with Aβ (words)” value is recorded as “severely impaired potentiation” in assay [5], “reduces LTP” in assay [5] (listed as Mutant (C90S) TAT-Uch-L1 fusion protein) and “dramatically reduced LTP” in assay [5] (listed as mutant (C90S) TAT-Uch-L1). Also, the amounts of potentiation in assay [5] (fusion protein alone, no Aβ) is reported as 152.38±10.90%. In assay [5] (fusion protein alone, no Aβ), the “decrease in potentiation compared to vehicle or TAT-HA-iUch-L1” value is around 60%. For the same molecule, the “baseline transmission in slices without tetanic stimulation” value in assay [5] (non-tetanized slices) is “Neither TAT-HA-Uch-L1(C90S) nor TAT-HA-Uch-L1(S18Y) affected baseline; also recorded: did not affect basal transmission”.
